According to patent publication US20240398949A1 (OSLO UNIVERSITETSSYKEHUS HF, published 2024):

Legend:
full-length HER2 = target: T1, full-length HER2 (Homo sapiens (Human), UniProt P04626 23-1255); test: flow cytometry on cell lines expressing full-length HER2, goat anti-rat-PE secondary
T1 construct: Endogenous HER2 on cell lines
Method: Cells were washed, pelleted down and resuspended in 100 μl FACS buffer (containing phosphate-buffered saline (PBS), pH 7, 2% FBS, and 2 mM EDTA). […] Cells were washed twice, resuspended in 100 μL FACS buffer containing secondary antibody goat anti-rat-PE (0.26 μg/ml) and Fixable Viability Dye eFluor™ 780 and incubated for 30 minutes in the dark at 4° C. Cells were washed, resuspended in 200 μL FACS buffer, and analyzed on a LSR II flow cytometer (BD Biosciences, Franklin Lakes, NJ, USA). Data were analyzed with FlowJo software (v10.7.1, FlowJo LLC).

peptide 2 (FIGURE 3 d/e) = target: T2, peptide 2 (FIGURE 3 d/e); test: peptide array on cellulose membrane, truncation series, signal intensity (area under curve), duplicate spots
T2 peptide: VKPDLSYMPIWKFPDEEGA

[1] = target: T3, peptide 15 (FIGURE 3 d/e); test: as above
T3 construct: also called PDEEGA
T3 peptide: PDEEGA

[2] = target: T4, peptide 16 (FIGURE 3 d/e); test: as above
T4 construct: also called DEEGA
T4 peptide: DEEGA

[3] = target: T5, peptide 17 (FIGURE 3 d/e); test: as above
T5 construct: also called EEGA
T5 peptide: EEGA

peptide 3 (FIGURE 3 d/e) = target: T6, peptide 3 (FIGURE 3 d/e); test: as above
T6 peptide: KPDLSYMPIWKFPDEEGA

peptide 4 (FIGURE 3 d/e) = target: T7, peptide 4 (FIGURE 3 d/e); test: as above
T7 peptide: PDLSYMPIWKFPDEEGA

peptide 5 (FIGURE 3 d/e) = target: T8, peptide 5 (FIGURE 3 d/e); test: as above
T8 peptide: DLSYMPIWKFPDEEGA

peptide 6 (FIGURE 3 d/e) = target: T9, peptide 6 (FIGURE 3 d/e); test: as above
T9 peptide: LSYMPIWKFPDEEGA

peptide 7 (FIGURE 3 d/e) = target: T10, peptide 7 (FIGURE 3 d/e); test: as above
T10 peptide: SYMPIWKFPDEEGA

peptide 8 (FIGURE 3 d/e) = target: T11, peptide 8 (FIGURE 3 d/e); test: as above
T11 peptide: YMPIWKFPDEEGA

peptide 9 (FIGURE 3 d/e) = target: T12, peptide 9 (FIGURE 3 d/e); test: as above
T12 peptide: MPIWKFPDEEGA

[4] = target: T13, peptide 14 (FIGURE 3 d/e); test: as above
T13 construct: also called FPDEEGA
T13 peptide: FPDEEGA

[5] = target: T14, Peptide 1 of Table 4 (HER2 glycine-603 to alanine-622); test: as above
T14 construct: Parent peptide of the N-terminal truncation and double-alanine substitution series
T14 peptide: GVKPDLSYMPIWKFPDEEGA

[6] = target: T15, Peptide 10 of Table 4 (N-terminal truncation, methionine-611 lost); test: as above
T15 peptide: PIWKFPDEEGA

[7] = target: T16, Peptide 11 of Table 4 (N-terminal truncation, proline-612 lost); test: as above
T16 peptide: IWKFPDEEGA

[8] = target: T17, Peptide 12 of Table 4 (N-terminal truncation, isoleucine-613 lost); test: as above
T17 peptide: WKFPDEEGA

[9] = target: T18, Peptide 13 of Table 4 (N-terminal truncation, tryptophan-614 lost); test: as above
T18 peptide: KFPDEEGA

[10] = target: T19, peptide 24 (FIGURE 3 d/e); test: peptide array on cellulose membrane, double-alanine substitution series, signal intensity (area under curve), duplicate spots
T19 peptide: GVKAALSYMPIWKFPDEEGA

[11] = target: T20, peptide 29 (FIGURE 3 d/e); test: as above
T20 construct: marked MP under the bar
T20 peptide: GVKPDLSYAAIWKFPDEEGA

[12] = target: T21, peptide 33 (FIGURE 3 d/e); test: as above
T21 construct: marked KF under the bar
T21 peptide: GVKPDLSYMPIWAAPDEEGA

[13] = target: T22, peptide 36 (FIGURE 3 d/e); test: as above
T22 construct: marked DE under the bar
T22 peptide: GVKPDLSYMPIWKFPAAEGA

[14] = target: T23, peptide 38 (FIGURE 3 d/e); test: as above
T23 peptide: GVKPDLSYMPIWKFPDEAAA

B1: Oslo-2 antibody (monoclonal antibody against p95HER2) (antibody, V domains shown)
VH: EVQILETGGGLVKPGGSLRLSCATSGFNFNDYFMNWVRQAPGKGLEWIAQIRNKNYNYATYFAESLEGRFTISRDDSKSSVYLQVNSLRAEDTALYYCTELRYDYWGQGVMVTVSS
VL: DIVMTQSPFSLAVSEGEMVTINCKSSQSLLSSGNQKNNLAWYQQKPGQSPKLLIYYASTRQSGVPDRFIGSGSGTDFTLTISDVQAEDLADYYCLQHYSSPYTFGAGTKLELK
notes: Monoclonal antibody from a rat hybridoma (mClone 1), detected with goat anti-rat-PE; also called the antibody of interest; the antibody
Question: Does B1 bind (full-length HER2)?
Answer: no binding (tested: 10 µg/ml (not on the sheet))

Question: Does B1 bind (peptide 2 (FIGURE 3 d/e))?
Answer: binds

Question: Does B1 bind [1]?
Answer: no binding

Question: Does B1 bind [2]?
Answer: no binding

Question: Does B1 bind [3]?
Answer: no binding

Question: Does B1 bind (peptide 3 (FIGURE 3 d/e))?
Answer: binds

Question: Does B1 bind (peptide 4 (FIGURE 3 d/e))?
Answer: binds

Question: Does B1 bind (peptide 5 (FIGURE 3 d/e))?
Answer: binds

Question: Does B1 bind (peptide 6 (FIGURE 3 d/e))?
Answer: binds

Question: Does B1 bind (peptide 7 (FIGURE 3 d/e))?
Answer: binds

Question: Does B1 bind (peptide 8 (FIGURE 3 d/e))?
Answer: binds

Question: Does B1 bind (peptide 9 (FIGURE 3 d/e))?
Answer: binds

Question: Does B1 bind [4]?
Answer: no binding

Question: Does B1 bind [5]?
Answer: binds

Question: Does B1 bind [6]?
Answer: binds

Question: Does B1 bind [7]?
Answer: binds

Question: Does B1 bind [8]?
Answer: binds

Question: Does B1 bind [9]?
Answer: no binding

Question: Does B1 bind [10]?
Answer: binds

Question: Does B1 bind [11]?
Answer: binds

Question: Does B1 bind [12]?
Answer: binds

Question: Does B1 bind [13]?
Answer: binds

Question: Does B1 bind [14]?
Answer: binds
